Source: paper PMC3391682, “Structure of the Glycosyltransferase EryCIII in Complex with its Activating P450 Homologue EryCII” (Journal of Molecular Biology, 2012)

Target: T1, glycosyltransferase EryCIII (UniProt A4F7P3 1-421)
T1 construct: EryCIII, glycosyltransferase that attaches TDP-D-desosamine to 3-alpha-mycarosylerythronolide B in erythromycin D biosynthesis; printed mass 48.1 kDa (47,961 Da measured, loss of the N-terminal methionine); Se-Met-labelled protein was used for phasing; also called GT EryCIII; source: E. coli BL21 (DE3) codon plus RP, co-expressed with the S. coelicolor chaperonins GroEL1, GroES and GroEL2, …
T1 sequence (looked up): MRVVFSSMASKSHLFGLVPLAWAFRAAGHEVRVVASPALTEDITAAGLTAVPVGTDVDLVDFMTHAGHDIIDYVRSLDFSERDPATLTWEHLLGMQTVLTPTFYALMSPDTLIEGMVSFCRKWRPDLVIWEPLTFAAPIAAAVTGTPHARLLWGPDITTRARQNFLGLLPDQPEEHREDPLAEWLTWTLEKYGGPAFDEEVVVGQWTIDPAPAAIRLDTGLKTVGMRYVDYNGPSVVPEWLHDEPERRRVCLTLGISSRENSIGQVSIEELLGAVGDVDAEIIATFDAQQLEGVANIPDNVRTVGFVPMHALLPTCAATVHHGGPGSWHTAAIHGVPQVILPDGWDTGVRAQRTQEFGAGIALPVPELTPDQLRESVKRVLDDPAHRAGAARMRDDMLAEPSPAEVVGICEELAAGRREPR
Test: AUC; sedimentation velocity of the co-expressed, co-purified EryCIII·EryCII complex in 2 mM DTT, 293 K, 50,000 r.p.m.; c(S) and c(M) analysis, taken together with band intensities on a denaturing polyacrylamide gel
Details: both partners purified

B1: EryCII, activating P450 homologue (auxiliary protein) of EryCIII (natural protein)
chain: MTTTDRAGLGRQLQMIRGLHWGYGSNGDPYPMLLCGHDDDPQRRYRSMRESGVRRSRTETWVVADHATARQVLDDPAFTRATGRTPEWMRAAGAPPAEWAQPFRDVHAASWEGEVPDVGELAESFAGLLPGAGARLDLVGDFAWQVPVQGMTAVLGAAGVLRGAAWDARVSLDAQLSPQQLAVTEAAVAALPADPALRALFAGAEMTANTVVDAVLAVSAEPGLAERIADDPAAAQRTVAEVLRLHPALHLERRTATAEVRLGEHVIGEGEEVVVVVAAANRDPEVFAEPDRLDVDRPDADRALSAHRGHPGRLEELVTALATAALRAAAKALPGLTPSGPVVRRRRSPVLRGTNRCPVEL
notes: printed mass 40.7 kDa; also called helper protein
Question: For B1, which “stoichiometry N” value is on record?
Answer: Its value is 1.
